From patent publication US20250340604A1 (ENKEFALOS BIOSCIENCES, published 2025) come the findings set out here.

T5 sequence (Q15109 23-342): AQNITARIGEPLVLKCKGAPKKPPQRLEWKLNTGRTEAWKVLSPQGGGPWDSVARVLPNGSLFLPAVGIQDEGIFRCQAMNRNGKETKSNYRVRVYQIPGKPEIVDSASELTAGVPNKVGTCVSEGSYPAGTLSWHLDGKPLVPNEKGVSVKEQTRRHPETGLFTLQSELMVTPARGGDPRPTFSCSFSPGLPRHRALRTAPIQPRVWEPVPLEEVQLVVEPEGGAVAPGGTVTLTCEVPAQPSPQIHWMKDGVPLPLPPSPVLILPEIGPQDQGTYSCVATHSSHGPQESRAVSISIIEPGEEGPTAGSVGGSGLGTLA

One test addresses T1, human leptin receptor (Hu ObR), recombinant extracellular domain (human, UniProt P48357 22-839).
T1 construct: extracellular domain; Recombinant Fc fusion (R&D Systems) or His-tagged (Sino Biologicals)
T1 sequence (looked up): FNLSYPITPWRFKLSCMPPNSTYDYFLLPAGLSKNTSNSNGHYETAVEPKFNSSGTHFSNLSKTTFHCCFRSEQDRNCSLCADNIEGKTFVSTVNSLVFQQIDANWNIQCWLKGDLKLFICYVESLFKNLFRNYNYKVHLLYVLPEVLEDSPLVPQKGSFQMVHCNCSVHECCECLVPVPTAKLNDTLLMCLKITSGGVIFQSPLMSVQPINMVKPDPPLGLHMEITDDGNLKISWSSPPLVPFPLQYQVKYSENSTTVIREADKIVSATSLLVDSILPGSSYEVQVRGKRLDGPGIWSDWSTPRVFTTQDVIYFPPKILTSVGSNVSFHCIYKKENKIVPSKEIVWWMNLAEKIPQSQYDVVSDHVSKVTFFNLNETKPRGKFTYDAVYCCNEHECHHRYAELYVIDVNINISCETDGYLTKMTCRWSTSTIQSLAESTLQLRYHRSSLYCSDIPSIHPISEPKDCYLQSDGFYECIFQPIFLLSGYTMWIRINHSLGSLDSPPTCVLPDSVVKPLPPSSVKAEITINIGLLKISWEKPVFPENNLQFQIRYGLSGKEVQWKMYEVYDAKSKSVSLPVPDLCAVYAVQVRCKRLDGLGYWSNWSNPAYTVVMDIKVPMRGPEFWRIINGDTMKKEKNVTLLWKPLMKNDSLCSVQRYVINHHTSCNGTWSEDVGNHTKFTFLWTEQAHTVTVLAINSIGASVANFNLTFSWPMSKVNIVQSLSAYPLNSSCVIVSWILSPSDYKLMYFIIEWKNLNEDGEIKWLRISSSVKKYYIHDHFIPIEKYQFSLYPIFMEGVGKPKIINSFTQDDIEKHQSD
Briefly: phage selection and phage ELISA on coated receptor ECD. (In general: An ELISA detects its analyte on a solid surface through an enzyme-linked reagent.)
Take GGVCWRWTPKIWVLEEMSSCSDCPGACICRGNGYCGSGSD (designed binder) [CYC4]: the binding result is given as “binds”.

On to GGVCFLWFWYGFSRTLCRRDSDCPGACICRGNGYCGSGSD (designed binder) [CYC14], for which the binding result was “binds”. On the same count and under the same terms, in the case of GGVCYDWGWFWPFEQYCRRDSDCPGACICRGNGYCGSGSD (designed binder) [CYC7] it was “binds”.

For the molecule GGVCPWPKWTYMAQKYCRRDSDCPGACICRGNGYCGSGSD (designed binder) [CYC1], the binding result is “binds”. As to GGVCPTAMWFDWFTVYCRRDSDCPGACICRGNGYCGSGSD (designed binder) [CYC13], the binding result is “binds”.

For the molecule GGVCPTQTWWFWLPAQCRRDSDCPGACICRGNGYCGSGSD (designed binder) [CYC10], the binding result is “binds”. As to GGVCHSQFWPWEWYQFCRRDSDCPGACICRGNGYCGSGSD (designed binder) [CYC3], the binding result is reported as “binds”. On the same count and under the same terms, in the case of GGVCEWSDWFPYEFLFCRRDSDCPGACICRGNGYCGSGSD (designed binder) [CYC12] it was “binds”; in that of GGVCSDRWDWMFATWLCRRDSDCPGACICRGNGYCGSGSD (designed binder) [CYC8], “binds”; in that of GGVCYVDWPWTLTLWYCRRDSDCPGACICRGNGYCGSGSD (designed binder) [CYC11], “binds”.

In the case of GGVCWQGMMLFFVGEKCRRDSDCPGACICRGNGYCGSGSD (designed binder) [CYC5], the binding result was “binds”. Same read-out and setting: in the case of GGVCVQPWYSWFMEQGCRRDSDCPGACICRGNGYCGSGSD (designed binder) [CYC9] it was “binds”; in that of GGVCGWFYWYHKWFGPCRRDSDCPGACICRGNGYCGSGSD (designed binder) [CYC6], “binds”; in that of GGVCQSFFWWHSWFGVCRRDSDCPGACICRGNGYCGSGSD (designed binder) [CYC2], “binds”.

The next test concerns the target T2, human HER3/ErbB3 (Hu ErbB3), recombinant extracellular domain (human, UniProt P21860 20-643).
T2 construct: extracellular domain; Recombinant Fc fusion (R&D Systems) or His-tagged (Sino Biologicals)
Described as above.
With GGVCRHSYSQIPLWCRRDSDCPGACICRGNGYCGSGSD (designed binder) [CYC15], the binding result was “binds”. Same read-out and setting: in the case of GGVCWWDKWVFPISRQCRRDSDCPGACICRGNGYCGSGSD (designed binder) [CYC16] it was “binds”.

In another test the target is T3, human transferrin receptor (Hu TrfR), recombinant extracellular domain (human, UniProt P02786 89-760).
T3 construct: extracellular domain; Recombinant Fc fusion (R&D Systems) or His-tagged (Sino Biologicals); also called human TfR
T3 sequence (P02786 89-760): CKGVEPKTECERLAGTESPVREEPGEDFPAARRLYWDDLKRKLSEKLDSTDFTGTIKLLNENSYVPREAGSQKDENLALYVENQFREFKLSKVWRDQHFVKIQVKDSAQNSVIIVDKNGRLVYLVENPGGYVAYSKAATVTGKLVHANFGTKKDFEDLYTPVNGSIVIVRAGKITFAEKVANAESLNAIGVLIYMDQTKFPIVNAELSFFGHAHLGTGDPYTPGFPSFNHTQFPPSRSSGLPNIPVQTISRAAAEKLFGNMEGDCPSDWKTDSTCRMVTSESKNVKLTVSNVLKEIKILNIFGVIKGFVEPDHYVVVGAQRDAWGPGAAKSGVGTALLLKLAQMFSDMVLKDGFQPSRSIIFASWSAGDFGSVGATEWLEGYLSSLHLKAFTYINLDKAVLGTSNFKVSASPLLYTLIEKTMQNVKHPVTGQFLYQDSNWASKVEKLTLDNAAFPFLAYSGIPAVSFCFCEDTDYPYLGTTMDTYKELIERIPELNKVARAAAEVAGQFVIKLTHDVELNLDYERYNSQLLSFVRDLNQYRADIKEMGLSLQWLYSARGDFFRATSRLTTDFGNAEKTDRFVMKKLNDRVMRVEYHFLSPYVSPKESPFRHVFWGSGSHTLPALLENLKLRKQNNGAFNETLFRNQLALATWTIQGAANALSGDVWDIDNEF
The description is as above.
As to GGVCEYFRWHLDSWGECRRDSDCPGACICRGNGYCGSGSD (designed binder) [CYC40], the binding result is recorded as “binds”.

Turning to GGVCLYEAWHLPSWGQCRRDSDCPGACICRGNGYCGSGSD (designed binder) [CYC44], the binding result is “binds”. For GGVCDPRWLAGWGSCRRDSDCPETCICRGNGYCASGYD (designed binder) [CYC18], the binding result was “binds”. Still for that read-out and setting: the result for GGVCQMVSEHWVARVWCRRDSDCPGACICRGNGYCGSGSD (designed binder) [CYC45] reads “binds”; that for GGVCLVSQWHIESWGQCRRDSDCPGACICRGNGYCGSGSD (designed binder) [CYC41], “binds”.

Consider GGVCQEERWHMHSWGPCRRDSDCPGACICRGNGYCGSGSD (designed binder) [CYC42], for which the binding result was “binds”. Still for that read-out and setting: the result for GGVCKALWYMGWGTCRRDSDCPGACICRGNGYCGSGSD (designed binder) [CYC24] reads “binds”; that for GGVCKQNWLPGWGTCRRDSDCPGACICRGNGYCGSGSD (designed binder) [CYC25], “binds”. In the case of GGVCRYQEWHMESWGSCRRDSDCPGACICRGNGYCGSGSD (designed binder) [CYC43], the binding result is reported as “binds”.

For a further test, the target named is T4, mouse transferrin receptor (Mu TrfR), recombinant extracellular domain (mouse, UniProt Q62351 89-763).
T4 construct: extracellular domain; Recombinant Fc fusion (R&D Systems) or His-tagged (Sino Biologicals)
T4 sequence (Q62351 89-763): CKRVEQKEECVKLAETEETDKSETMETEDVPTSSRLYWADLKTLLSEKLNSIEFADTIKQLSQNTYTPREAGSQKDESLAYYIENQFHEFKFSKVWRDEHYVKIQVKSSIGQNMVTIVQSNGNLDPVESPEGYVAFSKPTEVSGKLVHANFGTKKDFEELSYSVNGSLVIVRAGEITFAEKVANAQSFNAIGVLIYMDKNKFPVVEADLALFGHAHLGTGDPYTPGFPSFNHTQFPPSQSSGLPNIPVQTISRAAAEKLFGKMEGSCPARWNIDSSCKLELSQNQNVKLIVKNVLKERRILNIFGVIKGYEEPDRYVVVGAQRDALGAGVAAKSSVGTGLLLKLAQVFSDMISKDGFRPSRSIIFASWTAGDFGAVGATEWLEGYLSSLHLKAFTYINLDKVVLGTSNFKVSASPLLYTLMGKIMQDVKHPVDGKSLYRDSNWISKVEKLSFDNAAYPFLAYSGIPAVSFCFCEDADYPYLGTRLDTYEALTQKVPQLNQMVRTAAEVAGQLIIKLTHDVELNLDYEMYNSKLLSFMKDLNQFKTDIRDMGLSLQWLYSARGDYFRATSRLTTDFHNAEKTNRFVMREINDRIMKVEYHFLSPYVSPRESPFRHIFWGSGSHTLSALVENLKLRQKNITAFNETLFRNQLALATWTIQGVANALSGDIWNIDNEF
The description is as above.
As for GGVCHNLFVIESILFWCRRDSDCPGACICRGNGYCGSGSD (designed binder) [CYC23], the binding result is reported as “binds”. On the same count and under the same terms, in the case of GGVCQTVFPMWPWYQLCRRDSDCPGACICRGNGYCGSGSD (designed binder) [CYC22] it was “binds”; in that of GGVCMHNSASHNIQMQCRRDSDCPGACICRGNGYCGSGSD (designed binder) [CYC21], “binds”; in that of GGVCAYVHDWYHHVMYCRRDSDCPGACICRGNGYCGSGSD (designed binder) [CYC20], “binds”. Same read-out and setting: the result for GGVCTVWPFVWWGGVPCRRDSDCPGACICRGNGYCGSGSD (designed binder) [CYC19] reads “binds”.

The next test addresses T5, human receptor for advanced glycation-end products (Hu RAGE), recombinant extracellular domain (human, UniProt Q15109 23-342).
T5 construct: extracellular domain; Recombinant Fc fusion (R&D Systems) or His-tagged (Sino Biologicals)
Described as above.
With GGVCHVGYWWHIWMGACRRDSDCPGACICRGNGYCGSGSD (designed binder) [CYC28], the binding result was “binds”.

On to GGVCVSNFWFMHWFGVCRRDSDCPGACICRGNGYCGSGSD (designed binder) [CYC29], for which the binding result is given as “binds”.
